In the RNAGym collection of RNA variant scans (doi:10.1093/molbev/msab373):

B1: Azoarcus group I ribozyme (parent)
chain: GUGCCUUGCGCCGGGAAACCACGCAAGGGAUGGUGUCAAAUUCGGCGAAACCUAAGCGCCCGCCCGGGCGUAUGGCAACGCCGAGCCAAGCUUCGGCGCCUGCGCCGAUGAAGGUGUAGAGACUAGACGGCACCCACCUAAGGCAAACGCUAUGGUGAAGGCAUAGUCCAGGGAGUGGCGAAAGUCACACAAACCGG

Variants of: B1
Experiment: reverse-splicing fitness (ratio to wild type); higher = more active; in vitro selection; Mg2+ level not given
In short: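 An in vitro group I ribozyme library with randomized positions was T7-transcribed and gel-purified. In triplicate, 10 pmol RNA in EPPS pH 7.5 was reacted with 50 pmoles of a 30-nt RNA substrate for 1 h at 37 °C across several added MgCl2 levels (1–48 mM), then stopped with EDTA. Products were reverse transcribed from a substrate-complementary primer, PCR-amplified and sequenced (HiSeq 4000). Fitness is a variant's read proportion after selection over that before, normalised to wild type.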

Which reverse-splicing fitness does the source give for C82G A120C C150G C169U U176G here?
The reverse-splicing fitness was 0.00535.

With C82G A120C C169A U176A as the variant, how does the reverse-splicing fitness read?
Its reverse-splicing fitness is 0.0185.

Which reverse-splicing fitness does the source give for C82G A120C C169A U176C here?
Its reverse-splicing fitness is 0.0179.

With C82G A120C C169A U176G as the variant, how does the reverse-splicing fitness read?
The reverse-splicing fitness was 0.00393.

With C82G A120C C169G U176C as the variant, how does the reverse-splicing fitness read?
The reverse-splicing fitness was 0.0176.

Which reverse-splicing fitness does the source give for C82G A120C C169G U176G here?
The reverse-splicing fitness was 0.00385.

With C82G A120C C169G U176A as the variant, how does the reverse-splicing fitness read?
Its reverse-splicing fitness is 0.0172.

Which reverse-splicing fitness does the source give for C82G A120G A145G C150G U176A here?
Its reverse-splicing fitness is 0.00691.

For C82G A120G A145G C150G U176G, which reverse-splicing fitness is on record?
Its reverse-splicing fitness is 0.00614.

With C82G A120G A145G C150G U176C as the variant, how does the reverse-splicing fitness read?
Its reverse-splicing fitness is 0.011.

Which reverse-splicing fitness does the source give for C82G A120G C169G U176G here?
The reverse-splicing fitness was 0.00375.

Which reverse-splicing fitness does the source give for C82G A120G C169G U176A here?
The reverse-splicing fitness was 0.0234.

For C82G A120G C169G U176C, which reverse-splicing fitness is on record?
The reverse-splicing fitness was 0.0324.

For C82G A120G A145G C150U C169G, which reverse-splicing fitness is on record?
Its reverse-splicing fitness is 0.04.

For C82G A120G A145G C150U C169U, which reverse-splicing fitness is on record?
Its reverse-splicing fitness is 0.0236.

With C82G A120G A145G C150U C169A as the variant, how does the reverse-splicing fitness read?
Its reverse-splicing fitness is 0.0266.

Which reverse-splicing fitness does the source give for C82G A120G A145U C150A C169A U176C here?
Its reverse-splicing fitness is 0.0141.

Which reverse-splicing fitness does the source give for C82G A120G A145U C150A C169A U176G here?
The reverse-splicing fitness was 0.00465.

Which reverse-splicing fitness does the source give for C82G A120G A145U C150A C169A U176A here?
The reverse-splicing fitness was 0.014.

For C82G A120G A145U C150A U176A, which reverse-splicing fitness is on record?
The reverse-splicing fitness was 0.0105.

With C82G A120G A145U C150A U176C as the variant, how does the reverse-splicing fitness read?
The reverse-splicing fitness was 0.0139.

With C82G A120G A145U C150A U176G as the variant, how does the reverse-splicing fitness read?
Its reverse-splicing fitness is 0.00553.

Which reverse-splicing fitness does the source give for C82G A120G A145U C169U U176G here?
Its reverse-splicing fitness is 0.00349.

For C82G A120G A145U C169U U176A, which reverse-splicing fitness is on record?
Its reverse-splicing fitness is 0.0203.

Which reverse-splicing fitness does the source give for C82G A120G A145U C169U U176C here?
The reverse-splicing fitness was 0.0176.

For C82G A120G C150A C169A, which reverse-splicing fitness is on record?
Its reverse-splicing fitness is 0.0117.

With C82G A120G C150A C169G as the variant, how does the reverse-splicing fitness read?
The reverse-splicing fitness was 0.0133.

Which reverse-splicing fitness does the source give for C82G A120G C150A C169U here?
Its reverse-splicing fitness is 0.00945.

For C82G A120G A145U C150A C169G U176C, which reverse-splicing fitness is on record?
The reverse-splicing fitness was 0.0157.

For C82G A120G A145U C150A C169G U176G, which reverse-splicing fitness is on record?
The reverse-splicing fitness was 0.00401.

For C82G A120G A145U C150A C169G U176A, which reverse-splicing fitness is on record?
The reverse-splicing fitness was 0.0132.

Which reverse-splicing fitness does the source give for C82G A120U here?
Its reverse-splicing fitness is 0.251.

Which reverse-splicing fitness does the source give for C82G A120G here?
The reverse-splicing fitness was 0.029.

For C82G A120G A145C, which reverse-splicing fitness is on record?
Its reverse-splicing fitness is 0.0276.

Which reverse-splicing fitness does the source give for C82G A120G A145G here?
Its reverse-splicing fitness is 0.0281.

Which reverse-splicing fitness does the source give for C82G A120G A145U here?
The reverse-splicing fitness was 0.0294.

Which reverse-splicing fitness does the source give for C82G A120G A145G C150G C169U U176A here?
Its reverse-splicing fitness is 0.0131.

With C82G A120G A145G C150G C169U U176G as the variant, how does the reverse-splicing fitness read?
The reverse-splicing fitness was 0.00717.

With C82G A120G A145G C150G C169U U176C as the variant, how does the reverse-splicing fitness read?
The reverse-splicing fitness was 0.0139.

Which reverse-splicing fitness does the source give for C82G A120G C150G U176A here?
Its reverse-splicing fitness is 0.00652.

For C82G A120G C150G U176G, which reverse-splicing fitness is on record?
The reverse-splicing fitness was 0.00387.

For C82G A120G C150G U176C, which reverse-splicing fitness is on record?
Its reverse-splicing fitness is 0.0105.

Which reverse-splicing fitness does the source give for C82G A120G A145C C150U U176C here?
Its reverse-splicing fitness is 0.00922.

Which reverse-splicing fitness does the source give for C82G A120G A145C C150U U176G here?
Its reverse-splicing fitness is 0.00485.

For C82G A120G A145C C150U U176A, which reverse-splicing fitness is on record?
Its reverse-splicing fitness is 0.00928.

With C82G A120G A145C C169A as the variant, how does the reverse-splicing fitness read?
The reverse-splicing fitness was 0.0237.

For C82G A120G A145C C169G, which reverse-splicing fitness is on record?
The reverse-splicing fitness was 0.0468.

For C82G A120G A145C C169U, which reverse-splicing fitness is on record?
Its reverse-splicing fitness is 0.0209.

Which reverse-splicing fitness does the source give for C82G A120U A145C C150G C169U U176G here?
Its reverse-splicing fitness is 0.00182.

Which reverse-splicing fitness does the source give for C82G A120U A145C C150G C169U U176A here?
The reverse-splicing fitness was 0.00213.

With C82G A120U A145C C150G C169U U176C as the variant, how does the reverse-splicing fitness read?
The reverse-splicing fitness was 0.00176.

For C82G A120G A145U C150G C169U U176G, which reverse-splicing fitness is on record?
Its reverse-splicing fitness is 0.00487.

For C82G A120G A145U C150G C169U U176C, which reverse-splicing fitness is on record?
The reverse-splicing fitness was 0.0129.

With C82G A120G A145U C150G C169U U176A as the variant, how does the reverse-splicing fitness read?
The reverse-splicing fitness was 0.0125.

Which reverse-splicing fitness does the source give for C82G A120G C150A C169G U176G here?
Its reverse-splicing fitness is 0.00479.

For C82G A120G C150A C169G U176A, which reverse-splicing fitness is on record?
The reverse-splicing fitness was 0.0215.

Which reverse-splicing fitness does the source give for C82G A120G C150A C169G U176C here?
The reverse-splicing fitness was 0.0228.

For C82G A120G A145U C169G U176A, which reverse-splicing fitness is on record?
Its reverse-splicing fitness is 0.0157.

For C82G A120G A145U C169G U176G, which reverse-splicing fitness is on record?
The reverse-splicing fitness was 0.00374.

Which reverse-splicing fitness does the source give for C82G A120G A145U C169G U176C here?
The reverse-splicing fitness was 0.0227.

For C82G A120G A145G C150G C169A U176G, which reverse-splicing fitness is on record?
Its reverse-splicing fitness is 0.0077.

For C82G A120G A145G C150G C169A U176C, which reverse-splicing fitness is on record?
Its reverse-splicing fitness is 0.013.

For C82G A120G A145G C150G C169A U176A, which reverse-splicing fitness is on record?
The reverse-splicing fitness was 0.013.

Which reverse-splicing fitness does the source give for C82G A120G C150U C169U U176G here?
The reverse-splicing fitness was 0.00651.

For C82G A120G C150U C169U U176A, which reverse-splicing fitness is on record?
Its reverse-splicing fitness is 0.023.

With C82G A120G C150U C169U U176C as the variant, how does the reverse-splicing fitness read?
Its reverse-splicing fitness is 0.0203.

With C82G A120G A145G C150G C169G as the variant, how does the reverse-splicing fitness read?
Its reverse-splicing fitness is 0.0108.

With C82G A120G A145G C150G C169A as the variant, how does the reverse-splicing fitness read?
The reverse-splicing fitness was 0.0111.

For C82G A120G A145G C150G C169U, which reverse-splicing fitness is on record?
Its reverse-splicing fitness is 0.0109.

With C82G A120G A145G C150A U176G as the variant, how does the reverse-splicing fitness read?
The reverse-splicing fitness was 0.00757.

With C82G A120G A145G C150A U176C as the variant, how does the reverse-splicing fitness read?
The reverse-splicing fitness was 0.0209.

Which reverse-splicing fitness does the source give for C82G A120G A145G C150A U176A here?
Its reverse-splicing fitness is 0.011.

Which reverse-splicing fitness does the source give for C82G A120U A145C C150G C169A U176A here?
The reverse-splicing fitness was 0.00219.

Which reverse-splicing fitness does the source give for C82G A120U A145C C150G C169A U176G here?
Its reverse-splicing fitness is 0.00165.

For C82G A120U A145C C150G C169A U176C, which reverse-splicing fitness is on record?
The reverse-splicing fitness was 0.00176.

With C82G A120U A145C C150A C169U U176C as the variant, how does the reverse-splicing fitness read?
The reverse-splicing fitness was 0.00224.

For C82G A120U A145C C150A C169U U176A, which reverse-splicing fitness is on record?
The reverse-splicing fitness was 0.0023.

With C82G A120U A145C C150A C169U U176G as the variant, how does the reverse-splicing fitness read?
Its reverse-splicing fitness is 0.00162.

Which reverse-splicing fitness does the source give for C82G A120G C150G C169U U176A here?
Its reverse-splicing fitness is 0.0113.

For C82G A120G C150G C169U U176C, which reverse-splicing fitness is on record?
The reverse-splicing fitness was 0.0158.

For C82G A120G C150G C169U U176G, which reverse-splicing fitness is on record?
Its reverse-splicing fitness is 0.00645.

Which reverse-splicing fitness does the source give for C82G A120G A145C C150U C169G U176A here?
Its reverse-splicing fitness is 0.0238.

With C82G A120G A145C C150U C169G U176C as the variant, how does the reverse-splicing fitness read?
The reverse-splicing fitness was 0.0128.

For C82G A120G A145C C150U C169G U176G, which reverse-splicing fitness is on record?
The reverse-splicing fitness was 0.00426.
